Series [1] addresses T1, VEGF165 (vascular endothelial growth factor A, 165 isoform) (Homo sapiens, UniProt P15692-4 P15692-4:27-191). Put plainly: competition; competitive ELISA-like plate assay against biotinylated DNA competitor on immobilized VEGF165, chemiluminescence readout. To be noted: tags: recombinant human VEGF165, immobilized on 96-well plate; chain copies: 2 inferred. The procedure:
(§1) The ability of anti-VEGF aptamers to bind to human vascular endothelial growth factor (VEGF) was determined using a competitive binding ELISA-like assay. In this assay, recombinant VEGF₁₆₅ is bound to the wells of a 96-well plate (Quadra 96 Plus). Following blocking of nonspecific reactive sites on the plate, a matrix of the test aptamer and a biotinylated competitor, the DNA oligonucleotide shown below, were added.
(§2) “X” represent a biotin moiety in the above representation. Both the biotinylated competitor and the test aptamer compete for binding sites on the immobilized VEGF. Following the removal of the unbound biotinylated competitor and unbound test aptamer, the amount of biotinylated competitor remaining is detected using a chemiluminescence reaction. The entire plate was immediately read on a luminometer (Victor 2). The amount of bound biotinylated competitor is inversely related to the amount of bound test aptamer.
A general note: In an ELISA, binding on a coated surface is turned into a signal by an enzyme label.

The target of series [2] is T1, VEGF165 (vascular endothelial growth …). As to the kind of experiment: competition; biotinylated competitor binds immobilized VEGF165 and is displaced by test aptamer; printed as SEQ ID NO:1 in text but matches listing SEQ 11. To be noted: tags: recombinant human VEGF165, immobilized on 96-well plate; chain copies: 2 inferred; label: two 5' biotin moieties (XX). The procedure: as §1, §2

T1 sequence (P15692 other isoform, or with tags, fused parts or gaps): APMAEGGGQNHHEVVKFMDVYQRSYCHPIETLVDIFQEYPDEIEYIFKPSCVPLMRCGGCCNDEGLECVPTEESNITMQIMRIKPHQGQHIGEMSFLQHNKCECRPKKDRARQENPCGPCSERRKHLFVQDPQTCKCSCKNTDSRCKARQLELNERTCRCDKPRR

B1: Oligonucleotide 1 (5'-5' and 3'-3' inverted dT capped anti-VEGF aptamer) (ssRNA)
RNA: CGGAAUCAGUGAAUGCUUAUACAUCCG
modifications: 2'-F on all C and U; 2'-OMe on all G and on A except A4 and A5 (ribo); 5'-5' inverted dT cap; 3'-3' inverted dT cap
As a reminder, the IC50 is the concentration at which inhibition is half-maximal. With B1, the IC50 in series [1] worked out at 3.28 nM. As for CCCGTCTTCCAGACAAGAGTGCAGGG (ssDNA) [biotinylated DNA competitor oligonucleotide], in series [2], the binding result is on record as “binds”.

The values are drawn from patent publication US20050096290, “5'-and 3'-capped aptamers and uses therefor” (published 2005).
